What is called Kd is a measure of binding affinity in units of concentration. What is called stoichiometry N is a count of units in the complex or per binding partner.

Test [1] deals with ESCs. As to the kind of experiment: survival analysis of ESCs treated with DNA-damaging agents. Format: cell-based, mouse. The note with it: TRIM66-depleted ESCs. The procedure:
Furthermore, we performed competitive survival experiment through mixing the equal amount of TRIM66-KO ESCs and green fluorescent protein (GFP)-labeled WT ESCs (WT-GFP), then co-cultured for 5 days under EPI treatment.
For the culture of ESCs, the medium was changed every day and the cells were passaged every 2 days. The 293T cells were cultured in DMEM containing 10% fetal bovine serum. […]
a, The expression level of DNA damage related genes (Cdkn1a, Gadd45a, and p53) in WT and TRIM66 KO ESCs […]
assay c in WT and TRIM66 KO ESCs treated with EPI. e, Clonal competition assay of WT and TRIM66 KO ESCs treated with EPI in different days (day 1, 3, and 5). Representative images show the mixtures of WT-GFP and […] clones. Scale bar, 10 μm.* represents a difference from WT ESCs or GFP-negative ESC clones at day 1, # indicates a difference from GFP-positive ESC clones at day 1. Statistical significance is determined by two-tailed
(1 picture or pasted object on this page, not shown here)

The subject of test [2] is ESCs. Put plainly: survival with DNA repair inhibitors (HR, NHEJ). Format: cell-based, mouse. The following applies: TRIM66-depleted ESCs under EPI treatment with HR or NHEJ inhibitor. From the text:
reagent (Fig. S9b, c). We further performed the competitive survival experiment through co-culturing the GFP-labeled wild-type ESCs and TRIM66 KO ESCs under EPI treatment, and our […]
was indeed required for ESC to survive DNA damage (Fig. S9d). […]
localization of γ-H2AX foci and HR repair related proteins (Rad51 and CtIP) or NHEJ repair related protein (DNA-PKcs) in ESCs (Fig. 5f, 5g, S11d, and S11e). We further applied two specific inhibitors (YU238259 and NU7441) to block HR and NHEJ repair respectively (Stachelek et al., […]
affect both HR and NHEJ repair pathways in ESCs (Fig. S11f). To better clarify the mechanisms of TRIM66 involved in the regulation of DNA damage, w e performed the immunofluorescence assay […]
to bind at DNA damage sites (Fig. S11a). […] We also analyzed the relevance of […]
depletion of TRIM66 disrupted the negative correlation of H3K56ac and γ-H2AX (Fig. 5d). In view of the recognition of TRIM66 and H3K56ac (Fig.2 and Fig. S10), we speculated that the loose winding of nucleosomal DNA nearby the DNA damage sites might expose H3K56ac to its reader TRIM66, while TRIM66 deficiency impeded the erasure of H3K56ac at DNA damage sites and the recruitment of DNA repair proteins. […]

Test [3] concerns the target TRIM66-WT_(965-1160) (human) (UniProt O15016). Put plainly: ITC; 0.7–4 mM peptide injected into a cell with 0.05 or 0.11–[…] TRIM66-PHD-Bromo (or its mutants), 0.12 mM TRIM24-PHD-Bromo or 0.05 mM TRIM33 PHD-Bromo; 25 °C; 20 mM Tris, 100 mM NaCl, pH 7.5; MicroCal PEAQ-ITC; single measurement. A general note: In ITC the heat of successive injections is recorded.
Test [4] has as its target TRIM66-GSGS_(968-1160) (PHD-Bromodomain) (human) (UniProt O15016). Put plainly: ITC; MicroCal PEAQ-ITC, 25 °C, 20 mM Tris, 100 mM NaCl, pH 7.5; 0.7-4 mM peptide injected into the cell with 0.12 mM TRIM24-PHD-Bromo, 0.05 mM TRIM33 PHD-Bromo, or 0.05 or 0.11-[…] TRIM66-PHD-Bromo (or its mutants); single measurement, errors from the fitting curve.
Test [5] concerns the target TRIM66-WT_(965-1160) (PHD-Bromodomain) (human) (UniProt O15016). The test is described as above.
Test [6] concerns the target T1, TRIM66_(965-1160) N969A (human, UniProt O15016 965-1160, N969A). As to the kind of experiment: ITC.
Target sequence in this assay (O15016 1100-1295 N1104A): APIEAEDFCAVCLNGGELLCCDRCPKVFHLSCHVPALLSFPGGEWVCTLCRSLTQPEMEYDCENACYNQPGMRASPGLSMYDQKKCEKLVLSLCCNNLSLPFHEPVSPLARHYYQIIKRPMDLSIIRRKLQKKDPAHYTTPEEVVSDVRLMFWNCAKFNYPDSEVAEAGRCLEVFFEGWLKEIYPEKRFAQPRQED
The target of test [7] is T2, TRIM66_(965-1160) E968A (human, UniProt O15016 965-1160, E968A). Put plainly: ITC.
Target sequence in this assay (O15016 1100-1295 E1103A): as the sequence (O15016 1100-1295 N1104A) above, with E4A, A5N counted along it
Another test deals with T3, TRIM24_(824-1006) (human, UniProt O15164 824-1006).
T3 construct: TRIM24, human, PHD-Bromodomain, residues 824-1006, amplified from a human bone marrow cDNA library, in pET-SUMO-28a (+); also called TRIM24-PHD-Bromo; TRIM24 PHD-Bromodomain; source: E. coli BL21 (DE3), purified (Ni-chelating column, SUMO protease, second nickel column, Superdex 75)
T3 sequence (looked up): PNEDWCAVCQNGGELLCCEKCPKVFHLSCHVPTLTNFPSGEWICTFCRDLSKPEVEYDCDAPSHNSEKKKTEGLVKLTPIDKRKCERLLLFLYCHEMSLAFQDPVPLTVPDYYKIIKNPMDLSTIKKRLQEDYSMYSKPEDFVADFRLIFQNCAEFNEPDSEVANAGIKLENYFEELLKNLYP
As to the kind of experiment: ITC; 0.7–4 mM peptide injected into a cell with 0.05 or 0.11–0.15 mM TRIM66-PHD-Bromo (or its mutants), 0.12 mM TRIM24-PHD-Bromo or 0.05 mM TRIM33 PHD-Bromo; 25 °C; 20 mM Tris, 100 mM NaCl, pH 7.5; MicroCal PEAQ-ITC; single measurement. The note with it: both partners purified.

In the next test the target is T4, TRIM33_(882-1087) (human, UniProt Q9UPN9 882-1087).
T4 construct: also called TRIM33 PHD-Bromo; TRIM33 PHD-Bromodomain; source: E. coli BL21 (DE3), purified (Ni-chelating column, SUMO protease, second nickel column, Superdex 75)
T4 sequence (looked up): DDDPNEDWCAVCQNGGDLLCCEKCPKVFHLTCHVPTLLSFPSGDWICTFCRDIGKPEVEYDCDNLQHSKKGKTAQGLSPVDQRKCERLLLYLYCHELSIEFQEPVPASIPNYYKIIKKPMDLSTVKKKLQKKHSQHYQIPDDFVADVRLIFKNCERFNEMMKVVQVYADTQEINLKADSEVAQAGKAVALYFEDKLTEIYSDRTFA
Described as above. The following applies: both partners purified.

For test [8], the target named is T1, TRIM66_(965-1160) N969A. Put plainly: ITC; MicroCal PEAQ-ITC, 25 °C, 20 mM Tris, 100 mM NaCl, pH 7.5; 0.7-4 mM peptide injected into the cell with 0.12 mM TRIM24-PHD-Bromo, 0.05 mM TRIM33 PHD-Bromo, or 0.05 or 0.11-[…] TRIM66-PHD-Bromo (or its mutants); single measurement, errors from the fitting curve.
Test [9] concerns the target T2, TRIM66_(965-1160) E968A. The test is described as above.
The target in test [10] is TRIM66-MUT_(968-1160) (PHD-Bromodomain) (human) (UniProt O15016). The test is described as above.
Test [11] concerns the target T5, TRIM33_(882-1087) (PHD-Bromodomain) (human, UniProt Q9UPN9 882-1087).
T5 construct: also called TRIM33 PHD-Bromo; source: E. coli BL21 (DE3), purified (Ni column, SUMO protease, second Ni column, Superdex 75)
T5 sequence (looked up): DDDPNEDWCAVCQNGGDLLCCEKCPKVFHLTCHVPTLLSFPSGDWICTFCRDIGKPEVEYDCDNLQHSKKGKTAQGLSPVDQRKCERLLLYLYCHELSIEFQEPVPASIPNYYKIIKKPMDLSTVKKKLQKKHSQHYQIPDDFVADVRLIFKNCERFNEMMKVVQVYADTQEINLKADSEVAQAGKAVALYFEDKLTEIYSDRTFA
As to the kind of experiment: ITC; MicroCal PEAQ-ITC, 25 °C, 20 mM Tris, 100 mM NaCl, pH 7.5; 0.7-4 mM peptide injected into the cell with 0.12 mM TRIM24-PHD-Bromo, 0.05 mM TRIM33 PHD-Bromo, or 0.05 or 0.11-0.15 mM TRIM66-PHD-Bromo (or its mutants); single measurement, errors from the fitting curve. The note with it: both partners purified.

The target of test [12] is T6, TRIM24_(824-1006) (PHD-Bromodomain) (human, UniProt O15164 824-1006).
T6 construct: TRIM24 PHD-Bromodomain, Homo sapiens, residues 824-1006 of UniProt O15164 (Isoform long); also called TRIM24-PHD-Bromo; source: E. coli BL21 (DE3), purified (Ni column, SUMO protease, second Ni column, Superdex 75)
T6 sequence (looked up): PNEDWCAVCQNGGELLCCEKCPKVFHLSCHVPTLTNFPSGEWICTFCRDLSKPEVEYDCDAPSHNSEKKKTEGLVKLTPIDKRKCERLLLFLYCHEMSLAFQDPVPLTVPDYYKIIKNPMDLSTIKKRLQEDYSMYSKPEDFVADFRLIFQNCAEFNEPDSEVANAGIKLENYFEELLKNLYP
The description is as above. The note with it: both partners purified.

In the case of bleomycin, the “survival of TRIM66-KO versus WT ESCs (in words)” value in the test on ESCs [1] is on record as “significantly impaired”; with ESCs [1] (listed as bleomycin), “significantly reduced the survival rates”.

Turning to YU238259, the “survival rate of TRIM66-depleted ESCs (in words)” value with ESCs [2] is “significant decrease in the survival rate”.

As for “H3_(48-57)K56ac peptide (from UniProt P68431 49-58)”, the equilibrium dissociation constant (Kd) in test [3] was 109 µM; in test [4], 127 µM. The values for the stoichiometry N in test [4] and in test [5] were 1.23 and 1.07, respectively.

In the case of `O=c1cc(N2CCOCC2)oc2c(-c3cccc4c3sc3ccccc34)cccc12` [NU7441], the “survival rate of TRIM66-depleted ESCs (in words)” value with ESCs [2] is “significant decrease in the survival rate”.

B1: H3_(1-12) peptide, unmodified (peptide, UniProt P68431 2-13, looked up)
peptide: ARTKQTARKSTG
notes: histone H3, residues 1-12, unmodified; also called unH3_(1-12); unmodified H3_(1-12); source: synthetic peptide (GL Biochem, Shanghai)
For B1, the Kd with TRIM66_(965-1160) N969A [6] was 72.6 µM; with TRIM66_(965-1160) E968A [7] it was 34.8 µM; with TRIM24_(824-1006), 51.4 µM; in the test with TRIM33_(882-1087), 3.39 µM.

B2: H3_(1-12) peptide (peptide, UniProt P68431 2-13, looked up)
peptide: ARTKQTARKSTG
notes: histone H3.1, Homo sapiens, residues 1-12; also called unH3_(1-12); unmodified H3_(1-12); source: synthetic peptide (GL Biochem)
For B2, the Kd with TRIM66_(965-1160) N969A [8] amounted to 72.6 µM; in the test with TRIM66_(965-1160) E968A [9], 34.8 µM. For the same molecule, the stoichiometry N with TRIM66_(965-1160) N969A [8] was 0.84; in the test with TRIM66_(965-1160) E968A [9] it was 1.04; in [10] it was 1.12; in [5], 0.96; in test [11] it was 1.06; in [12] it was 0.92.

These data come from article PMC6753139, “TRIM66 reads unmodified H3R2K4 and H3K56ac to respond to DNA damage in embryonic stem cells” (Nature Communications, 2019).
